Experimental data: patent publication US20250163168

Experiment: AC-SINS self-interaction assay; the antibody against itself (N = 2)

Row | Substance | AC-SINS (wavelength of maximum absorbance relative to blank, nm) [nm]
1 | negative control (polyreactivity assays) | 0
2 | positive control (polyreactivity assays) | 23.5
